Test results as given in US20260167721A1 (ABLEXIS, published 2026).
Residue numbers refer to the chain shown, from its start.

B1: ABL-CD3-84 (antibody, V domains shown)
VH: EVQLVESGGGLVKPGGSLRLSCAASGFTFSNFIMNWVRQAPGKGLEWVSSISGSSNYIYYADSVKGRFTISGDNAKNSLYLQMNSLRAEDTAVYYCAREKWVLLFFDYWGQGTLVTVSS
VL: NFMLTQPHSVSESPGKTVTISCTRSSGSIASNYVQWYQQRPGSSPTTMIYEDTQRPSGVPDRFSGSIDSSSNSASLTISGLKTEDEADYYCQSYDSSNRVFGGGTKLTVL
notes: mAb purified from hybridoma; chimeric AlivaMab IgG (human VH, CH1 and upper hinge; mouse middle hinge, CH2, CH3; human light chain)
B2: ABL-CD3-73 (antibody, V domains shown)
VH: EVQLVESGGGLVKPGGSLRLSCAASGFTITSYSMNWVRQAPGKGLEWVSTFSRSSTYIYYADSVKGRFTISRDNAKNSLYLQMNSLRAEDTAVYYCAREKWDLLYFDYWGQGTLVTVSS
VL: B1 VL with M48V, T53N, Q54R, S96N, K106T
notes: as for B1
B3: ABL-CD3-69 (antibody, V domains shown)
VH: EVQLVESGGGLVKPGGSLRLSCAASGFTFSTYTMNWVRQAPGKGLEWVSTITSSSRYIYYADSVKGRFTISRDNAKNSLYLQMNSLRAEDTAVYYCARVTFDAFDIWGQGTMVTVSS
VL: B1 VL with M48V, T53N
notes: as for B1
B4: ABL-CD3-68 (antibody, V domains shown)
VH: B1 VH with N31S, F32S, N56S, G72R, L79Q, N84K, K100R, V102N, F105Y
VL: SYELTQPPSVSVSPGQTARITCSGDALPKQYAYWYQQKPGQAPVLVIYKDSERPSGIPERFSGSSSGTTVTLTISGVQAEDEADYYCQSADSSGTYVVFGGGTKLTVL
notes: as for B1
B5: ABL-CD3-74 (antibody, V domains shown)
VH: EVQLVESGGGLVKPGGSLRLSCAASGFTFSSYSMKWVRQAPGKGLEWVSSISSSSSYIYYADSVKGRFTISRDNAKNSLYLQMNSLRAEDTAVYYCARDRGELTLWYWGQGTLVTVSS
VL: SYELTQPPSVSVSPGQTARITCSGDALPKKYAYWYQQKSGQAPVLVIYEDSKRPSGIPERFSGSSSGTMATLTISGAQVEDEADYYCYSTDSSGNHWVFGGGTKLTVL
notes: as for B1
B6: ABL-CD3-82 (antibody, V domains shown)
VH: B5 VH with K35N, G101R, T104L, W106D
VL: SYELTQPPSVSVSPGQTARITCSGDALPKKYAYWYQQKSGQAPVLVIYEDSKRPSGIPERFSGSSSGTMATLTISGAQVEDEADYYCYSTDSSGNHSWVFGGGTKLTVL
notes: as for B1
B7: ABL-CD3-76 (antibody, V domains shown)
VH: B5 VH with S31N, S33Y, K35N, W47R, S56N, G101R, T104P, W106D, L113V
VL: B5 VL
notes: as for B1
B8: ABL-CD3-75 (antibody, V domains shown)
VH: B5 VH with S31T, M34L, K35N, S53V, S56R, Y60F, G101R, T104L, W106D
VL: B6 VL with S97N
notes: as for B1

The binders below were run against T1, recombinant human CD3 epsilon/gamma heterodimer (human, UniProt P07766 23-126; P09693 23-116) (assay: BLI (Octet), mAb 5 ug/mL on FAB2G sensor, hCD3 E/G 200-50 nM;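 note: antibodies purified from hybridoma supernatants, measured by Octet binding to recombinant human CD3 protein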).
T1 construct: Recombinant heterodimer used as analyte in Octet; also called hCD3 E/G
T1 sequence (P07766 23-126, chain 1 of 2): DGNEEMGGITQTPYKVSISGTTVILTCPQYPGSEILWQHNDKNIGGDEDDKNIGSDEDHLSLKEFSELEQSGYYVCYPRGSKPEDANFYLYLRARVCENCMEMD
T1 sequence (P09693 23-116, chain 2 of 2): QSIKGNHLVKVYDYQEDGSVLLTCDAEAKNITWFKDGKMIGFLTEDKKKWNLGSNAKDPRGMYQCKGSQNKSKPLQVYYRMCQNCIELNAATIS
Method: (§1) Samples were evaluated by flow cytometry analysis against Jurkat and human Pan-T cells (FIG. 1B) as well as by Octet against recombinant human CD3 proteins to evaluate apparent affinities and binding off-rates (Table 6, infra).

Going from B1 to B2, the Kd falls from 145 nM to 6.12 nM (24-fold). The second binds more tightly here.

Going from B3 to B4, the Kd rises from 3.73 nM to 6.43 nM (1.7-fold). The first binds more tightly here.

First: B5
Second: B6
The Kd of the first is 39-fold higher: 124 nM for the first, 3.18 nM for the second.

B7 and B8 are within 1.5-fold of each other in Kd: 134 nM for the first, 159 nM for the second.

First: B1
Second: B2
The Response of the first is lower: 0.1 for the first, 0.99 for the second.

Compared with B3, B4 is lower in Response: 0.88 for the first, 0.28 for the second.

Going from B5 to B6, the Response falls from 0.13 to 0.02.

Going from B7 to B8, the Response falls from 0.24 to 0.19.

First: B1
Second: B2
The koff of the first is 130-fold higher: 0.0614 s⁻¹ for the first, 0.000472 s⁻¹ for the second.

Compared with B3, B4 is 4.9-fold higher in koff: 0.000321 s⁻¹ for the first, 0.00157 s⁻¹ for the second.

Compared with B5, B6 is 31-fold lower in koff: 0.0609 s⁻¹ for the first, 0.00197 s⁻¹ for the second.

B7 and B8 are within 1.5-fold of each other in koff: 0.0461 s⁻¹ for the first, 0.0593 s⁻¹ for the second.

Going from B1 to B2, the kon falls from 424000 M⁻¹ s⁻¹ to 77000 M⁻¹ s⁻¹ (5.5-fold).

First: B3
Second: B4
The kon of the first is 2.8-fold lower: 86100 M⁻¹ s⁻¹ for the first, 244000 M⁻¹ s⁻¹ for the second.

B5 and B6 are within 1.5-fold of each other in kon: 492000 M⁻¹ s⁻¹ for the first, 620000 M⁻¹ s⁻¹ for the second.

B7 and B8 are within 1.5-fold of each other in kon: 345000 M⁻¹ s⁻¹ for the first, 373000 M⁻¹ s⁻¹ for the second.

The binders below were run against T2, recombinant human CD3 epsilon/delta heterodimer (human, UniProt P07766 23-126; P04234 22-105) (assay: BLI (Octet), mAb 5 ug/mL on FAB2G sensor, hCD3 E/D 200-50 nM).
T2 construct: Recombinant heterodimer used as analyte in Octet; also called hCD3 E/D; human CD3E/D
T2 sequence (P07766 23-126, stated change not applied, chain 1 of 2): as the sequence (P07766 23-126, chain 1 of 2) above
T2 sequence (P04234 22-105, stated change not applied, chain 2 of 2): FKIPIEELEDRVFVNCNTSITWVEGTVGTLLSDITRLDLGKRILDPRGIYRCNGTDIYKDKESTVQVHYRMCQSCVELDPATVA
Method: as §1

Going from B1 to B2, the Kd falls from 143 nM to 1.26 nM (110-fold).

First: B3
Second: B4
The Kd of the first is 1.9-fold higher: 8.14 nM for the first, 4.2 nM for the second.

Compared with B5, B6 is 5.2-fold lower in Kd: 55.6 nM for the first, 10.6 nM for the second.

Going from B7 to B8, the Kd falls from 48.2 nM to 29.6 nM (1.6-fold).

Going from B1 to B2, the Response rises from 0.22 to 1.02.

First: B3
Second: B4
The Response of the first is higher: 0.87 for the first, 0.3 for the second.

Going from B5 to B6, the Response falls from 0.24 to 0.02.

First: B7
Second: B8
The Response of the first is lower: 0.53 for the first, 0.56 for the second.

Going from B1 to B2, the koff falls from 0.0203 s⁻¹ to 0.0001 s⁻¹ (200-fold).

B3 and B4 are within 1.5-fold of each other in koff: 0.000851 s⁻¹ for the first, 0.000973 s⁻¹ for the second.

First: B5
Second: B6
The koff of the first is 14-fold higher: 0.026 s⁻¹ for the first, 0.00192 s⁻¹ for the second.

Compared with B7, B8 is 1.7-fold lower in koff: 0.0125 s⁻¹ for the first, 0.00726 s⁻¹ for the second.

Compared with B1, B2 is 1.8-fold lower in kon: 142000 M⁻¹ s⁻¹ for the first, 79700 M⁻¹ s⁻¹ for the second.

First: B3
Second: B4
The kon of the first is 2.2-fold lower: 105000 M⁻¹ s⁻¹ for the first, 232000 M⁻¹ s⁻¹ for the second.

First: B5
Second: B6
The kon of the first is 2.6-fold higher: 467000 M⁻¹ s⁻¹ for the first, 182000 M⁻¹ s⁻¹ for the second.

B7 and B8 are within 1.5-fold of each other in kon: 260000 M⁻¹ s⁻¹ for the first, 245000 M⁻¹ s⁻¹ for the second.
